For one data set, the system named is SAN 16A (synthetic). Nature of the data set: EMSA.
The subject of data set [1] is HUM 17A (VZ+472) (synthetic). The data set can be described thus: EMSA. As to conditions: F3 printed RSDNLTZ, listing RSDNLTQ.
The test system of a further data set is GATA82Z678 (synthetic). Nature of the data set: EMSA.
Data set [2] deals with VOP 30A-4 (VZ+42/+530, mVZ+509) (synthetic). Nature of the data set: EMSA. As to conditions: 170 mM KCl, 1.7 mM MgCl2, Zn.
The subject of another data set is RAT 24A (synthetic). Nature of the data set: EMSA.
Data set [3] has as its system VG 8A (VZ-475) (synthetic). Nature of the data set: EMSA.
The next data set deals with HP38 4A (synthetic). The data set can be described thus: EMSA.
HP38 4A (synthetic), sequence (chain, as listed by the source): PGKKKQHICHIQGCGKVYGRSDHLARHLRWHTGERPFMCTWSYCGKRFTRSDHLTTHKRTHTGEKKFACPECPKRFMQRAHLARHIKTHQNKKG
The target of the next data set is VEGF 1D (synthetic) (UniProt P08047). The data set can be described thus: EMSA.
The next data set concerns the target VEGF 1* (synthetic) (UniProt P08047). Nature of the data set: EMSA.
Data set [4] addresses VEGF 1 (VZ-8) (synthetic) (UniProt P08047). The data set can be described thus: EMSA.
Another data set addresses VEGF 1A (synthetic) (UniProt P08047). Nature of the data set: EMSA.
Another data set addresses HBV 3 (synthetic) (UniProt P08047). The data set can be described thus: EMSA.
The target of data set [5] is ZEN-7A 1 (VZ-573) (synthetic) (UniProt P08047). Nature of the data set: EMSA.
In the next data set the target is VEGF 1C (synthetic) (UniProt P08047). Nature of the data set: EMSA.
The test system of data set [6] is PDF 5A (VZ+590) (synthetic). The data set can be described thus: EMSA.
PDF 5A (VZ+590) (synthetic), sequence (chain, as listed by the source): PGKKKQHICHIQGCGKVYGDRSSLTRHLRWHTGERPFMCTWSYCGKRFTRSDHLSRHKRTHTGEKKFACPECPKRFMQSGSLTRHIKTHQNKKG
In a further data set the test system is EP10A (synthetic). Nature of the data set: EMSA.
EP10A (synthetic), sequence (chain, as listed by the source): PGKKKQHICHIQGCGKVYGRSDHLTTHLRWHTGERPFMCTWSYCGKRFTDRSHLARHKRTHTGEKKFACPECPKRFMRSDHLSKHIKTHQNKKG
Data set [7] deals with VG10A/8A-VP16 (synthetic). The data set can be described thus: cell_activity. As to conditions: mouse VEGF promoter reporter activation in mouse cells.
Data set [8] relates to mVZ+57 (VG10A/8A, MVG) (synthetic). The data set can be described thus: EMSA. As to conditions: text printed as Kds of 0.031 nM for the designed ZFPs; 100 mM KCl, 1 mM MgCl2, Zn.

VG 8A (VZ-475) (synthetic), sequence (chain, as listed by the source): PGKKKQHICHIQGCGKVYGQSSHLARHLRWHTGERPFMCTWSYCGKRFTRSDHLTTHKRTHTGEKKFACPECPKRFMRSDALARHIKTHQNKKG
RAT 24A (synthetic), sequence (chain, as listed by the source): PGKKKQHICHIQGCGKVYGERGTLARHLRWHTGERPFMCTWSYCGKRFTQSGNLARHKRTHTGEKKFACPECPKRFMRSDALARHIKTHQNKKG
GATA82Z678 (synthetic), sequence (chain, as listed by the source): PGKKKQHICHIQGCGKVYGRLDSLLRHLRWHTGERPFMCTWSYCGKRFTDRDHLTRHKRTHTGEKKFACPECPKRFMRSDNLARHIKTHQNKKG
HUM 17A (VZ+472) (synthetic), sequence (chain, as listed by the source): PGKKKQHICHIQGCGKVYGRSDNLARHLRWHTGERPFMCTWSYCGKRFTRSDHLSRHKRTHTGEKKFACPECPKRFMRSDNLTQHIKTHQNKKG
VOP 30A-4 (VZ+42/+530, mVZ+509) (synthetic), sequence (chain, as listed by the source): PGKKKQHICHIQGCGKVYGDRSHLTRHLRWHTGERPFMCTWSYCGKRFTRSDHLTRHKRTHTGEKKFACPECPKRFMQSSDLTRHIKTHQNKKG
SAN 16A (synthetic), sequence (chain, as listed by the source): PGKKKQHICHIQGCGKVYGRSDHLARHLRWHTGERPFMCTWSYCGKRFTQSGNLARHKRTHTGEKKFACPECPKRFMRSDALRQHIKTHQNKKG

Sequence “AKGGAAGGG (double strand) [SAN 16A target]” yielded a Kd with SAN 16A (synthetic) of 1.03 nM.

Consider “ARGGGGGAG (double strand) [HUM 17A target]”, for which, in [1], the Kd is < 0.02 nM.

In the case of “GAGKGKGYG (double strand) [GATA82Z678 target]”, in the data set on GATA82Z678 (synthetic), the Kd stood at 1.8 nM.

For “GCTGGGGGCK (double strand) [VZ+42/+530 target]”, the Kd in data set [2] was < 0.02 nM.

In the case of “GDGGAAGHC (double strand) [RAT 24A target]”, the Kd in the data set with RAT 24A (synthetic) is < 0.02 nM.

“GDGTGGGGN (double strand) [VG 8A target]”: in [3], the Kd worked out at 0.35 nM.

The sequence “GGDTGGGGG (double strand) [HP38 4A target]” yielded a Kd with HP38 4A (synthetic) of 0.74 nM.

As for “GGGGAGGMT (double strand) [VEGF 1D target]”, the Kd with VEGF 1D (synthetic) amounted to 2 nM.

On to “GGGGAGGVK (double strand) [VEGF 1 / 1* / 1A target]”, for which the figures for the Kd (in the data set with VEGF 1* (synthetic); in [4]; with VEGF 1A (synthetic)) were 3 nM, 2.83 nM and 0.2 nM, respectively.

For the sequence “GGGGGAGGW (double strand) [HBV 3 target]”, in the data set with HBV 3 (synthetic), the Kd was 30 nM.

Consider “GGGGGHGCT (double strand) [ZEN-7A 1 target]”, for which the equilibrium dissociation constant (Kd) in [5] turned out to be 0.63 nM.

In the data set with VEGF 1C (synthetic), “GGGGVGGAT (double strand) [VEGF 1C target]” yielded a Kd of 1 nM.

In data set [6], “GYAGGGGCC (double strand) [PDF 5A target]” displayed an equilibrium dissociation constant (Kd) of 0.23 nM.

In the data set with EP10A (synthetic), “KGGGGCTGG (double strand) [EP10A target]” came in with a Kd of 0.35 nM.

For “TGAGCGGCGGCAGCGGAG (double strand) [VG10A/8A target]”, the activity in data set [7] is 29 fold.

Turning to “TGAGCGGCGGCAGCGGAGC (double strand) [mVZ+57 target]”, in data set [8], the Kd was < 0.031 nM.
